Experimental data published in patent US20110150901A1 (published 2011).

B1: β-Klotho walked dimer BK_R1c_D15 (designed binder)
chain: CLPDEFQCGSGRCIPQTWVCDGLNDCGDGSDEPPAHCSAPASEPPGSLCRSNQFTCGNGNCIPQPWVCDGEDDCGDDSDEESCKEHT
B2: β-Klotho-binding monomer bKmutM28 (designed binder)
chain: CPWFHHFKCRNGQRIPLHLVCDGVPDCGDDSDETDCGDSHILPFSTPGPST
B3: β-Klotho walked dimer bKWD01 (designed binder)
chain: CLPDEFQCGSGRCIPQHWLCDGLNDCGDGSDEPPAHCSAPASEPPGSLCRAGEFRCSNGRCVPLTWLCDGEDDCQDNSDEKNCAQPT
B4: β-Klotho walked dimer BK_R1c_D14 (designed binder)
chain: CLPDEFQCGSGRCIPQTWVCDGLNDCGDGSDEPPAHCSAPASEPPGSLCRSDEFRCGNGRCIPLTWVCDGEDDCQDSSDETGCTTPGHT
B5: BK_RI_D05 (designed binder)
chain: CAAGQFRCHNSDTCLPGAWVCDGDNDCGDNSDEASCQKRTCHSFNQFECRNGQCIPLHLVCDGVPDCGDNSDETDCGDSHILPFSTPGPST

Tests used:
[1] = biological target: T1, recombinant human β-Klotho (UniProt Q86Z14 53-996); experiment: binding
[2] = biological target: T1, recombinant human β-Klotho; experiment: ELISA
huR1b = experiment: ELISA
huR4 [3] = experiment: ELISA
[4] = biological target: T1, recombinant human β-Klotho; experiment: ELISA; remark: listed apart in the source
huR4 [5] = experiment: Alphascreen inhibition; FGF21/BK+R4

T1 sequence (Q86Z14 53-996): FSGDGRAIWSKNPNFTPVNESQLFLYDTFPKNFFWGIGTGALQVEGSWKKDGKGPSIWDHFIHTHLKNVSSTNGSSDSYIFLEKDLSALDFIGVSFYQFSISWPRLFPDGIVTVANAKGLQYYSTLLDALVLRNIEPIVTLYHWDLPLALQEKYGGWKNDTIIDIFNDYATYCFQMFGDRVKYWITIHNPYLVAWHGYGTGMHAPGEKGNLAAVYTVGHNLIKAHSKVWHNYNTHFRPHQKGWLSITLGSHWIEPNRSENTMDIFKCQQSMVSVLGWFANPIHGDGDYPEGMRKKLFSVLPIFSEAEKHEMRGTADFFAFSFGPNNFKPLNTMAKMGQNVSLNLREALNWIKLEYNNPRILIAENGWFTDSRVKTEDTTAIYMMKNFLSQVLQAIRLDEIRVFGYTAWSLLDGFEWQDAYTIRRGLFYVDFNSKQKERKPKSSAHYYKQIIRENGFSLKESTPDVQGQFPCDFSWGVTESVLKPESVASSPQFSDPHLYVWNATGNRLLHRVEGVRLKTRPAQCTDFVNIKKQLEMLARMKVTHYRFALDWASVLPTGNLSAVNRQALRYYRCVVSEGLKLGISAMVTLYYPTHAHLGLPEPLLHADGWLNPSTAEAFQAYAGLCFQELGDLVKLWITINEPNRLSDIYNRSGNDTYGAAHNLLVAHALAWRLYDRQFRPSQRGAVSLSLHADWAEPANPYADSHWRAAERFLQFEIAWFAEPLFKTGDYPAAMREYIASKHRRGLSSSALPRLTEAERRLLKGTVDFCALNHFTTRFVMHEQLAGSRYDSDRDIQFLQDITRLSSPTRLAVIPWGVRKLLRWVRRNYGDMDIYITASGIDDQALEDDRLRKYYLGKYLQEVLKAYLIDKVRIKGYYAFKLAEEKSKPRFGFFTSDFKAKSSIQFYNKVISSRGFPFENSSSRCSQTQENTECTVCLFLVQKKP

Binder	EC50 [1]	EC50 (huR4 [3])	also measured
B1	9.1 nM	–	–
B2	–	–	EC50 [2]: 214 nM
CGAGQFTCRDTNICISRAWRCDGVDDCEDNSDEADCSQDPEFHKV (designed binder) [R1c_M08]	–	–	EC50 (huR1b): 17 nM
CRLNEFPCGSGSCISLHWVCDSVPDCRDDSDETDCPERT (designed binder) [R1c_M33]	–	~300 nM	–
B3	0.05 nM	–	EC50 [4]: < 0.4 nM
B4	23 nM	–	–
CLSDQFTCRSTNICLPLQWVCDGDDDCEDNSDEEDCSAPASEPPGSL (designed binder) [R1c_M31]	–	~300 nM	EC50 (huR1b): 112 nM; IC50 (huR4 [5]): 5000 nM
B5	–	45.1 nM	–
